The numbers were not newly measured in US9422609B2, “Methods, compositions and devices for maintaining chemical balance of chlorinated water” (priority 2006, dated 2016), which cites them from elsewhere.

For this data set the following is noted: hydrolysis of cyanuric acid.

B1: cyanuric acid amidohydrolase from strain ADP of Pseudomonas sp.: cyanuric acid amidohydrolase (EC 3.5.2.15) from strain ADP of Pseudomonas sp. (protein, UniProt P58329 1-363, looked up)
Cyanuric acid amidohydrolase: MYHIDVFRIPCHSPGDTSGLEDLIETGRVAPADIVAVMGKTEGNGCVNDYTREYATAMLAACLGRHLQLPPHEVEKRVAFVMSGGTEGVLSPHHTVFARRPAIDAHRPAGKRLTLGIAFTRDFLPEEIGRHAQITETAGAVKRAMRDAGIASIDDLHFVQVKCPLLTPAKIASARSRGCAPVTTDTYESMGYSRGASALGIALATEEVPSSMLVDESVLNDWSLSSSLASASAGIELEHNVVIAIGMSEQATSELVIAHGVMSDAIDAASVRRTIESLGIRSDDEMDRIVNVFAKAEASPDGVVRGMRHTMLSDSDINSTRHARAVTGAAIASVVGHGMVYVSGGAEHQGPAGGGPFAVIARA
As usually defined, the Km is the substrate concentration at which the rate is half of its maximum. One may read the Vmax as the rate approached at saturating substrate. As for B1, the Michaelis-Menten constant (Km) was 71 µM, the Vmax was 8.4 µmol/min/mg and the turnover rate is 3 reactions per second.
